Assay results published in a protein production outcome set (Wang et al. 2014).

Assay: label from the status in PepcDB records
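Also: failed if final PepcDB status was selected cloned or expressed and not failed if soluble or beyond.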

| Sequence | protein production |
| --- | --- |
| MEFFAVSLDSHVFSHIKEIFLYNHNQKFYVVMMKHDDVLMILAAAALMFSFSWVHGMLLVLPLLAIPQLSSRTLKWGVLVLAVFVALLILQPMTRAVGLNISDELFRLVLLLLFTFMVALLIERIEKVRSLRELNLELKKQAEKLEDANKELEAFAYSVSHDLRVPLRAIDGFSRILVEDYEDKLDDEGVRILGIIRDNTRKMGQLIDDILLLSRAGRQEMNLAMLDMRELAESTYRELASQEEGRSIEFSVADLPPAMADRALMGQVMGNLLSNAIKFTRDRDPAVIEVGYMDGGDEHTYYVKDNGAGFDMKYASKLFGLFQRLHSQEEFEGTGVGLSIVQRIIKRHGGRVWGEGKVDGGATIYFTLPKVVK | failed |
| MSSLTSVELNFLVFRYLQESGFTHAAFTLGYEAGINKSNIDGNMVPPGALIKFVQKGLQYMEMEANLSNSEVDIDEDFSFFQPLDLISKDVKELQDMLREKKRKERDMEKERDRSKENDKGVEREHEGDRNRAKEKDRHEKQKEREREREKLEREKEREREKIEREKEREREKMEREIFEREKDRLKLEKEREIEREREREKIEREKSHEKQLGDADREMVIDQTDKEIAGDGSTGAEPMDIVMTPTSQTSHIPNSDVRILEGHTSEVCACAWSPSASLLASGSGDATARIWSIPEGSFKAVHTGRNINALILKHAKGKSNEKSKDVTTLDWNGEGTLLATGSCDGQARIWTLNGELISTLSKHKGPIFSLKWNKKGDYLLTGSVDRTAVVWDVKAEEWKQQFEFHSGPTLDVDWRNNVSFATSSTDSMIYLCKIGETRPAKTFTGHQGEVNCVKWDPTGSLLASCSDDSTAKIWNIKQSTFVHDLREHTKEIYTIRWSPTGPGTNNPNKQLTLASASFDSTVKLWDAELGKMLCSFNGHREPVYSLAFSPNGEYIASGSLDKSIHIWSIKEGKIVKTYTGNGGIFEVCWNKEGNKIAACFADNSVCVLDFRM | failed |
| MDENSLIYGLELQARALTPQYGESNDVCFFIATNSLKPTNQVHLIQYEEEQGSVQSKVFEHALGEVWKLNSCPRNPRLLASVYNVQKGAQVLTKAALFTLPENLNPDPEQLKSEYLPWEQVEVLDTEALGERVKTIEFHPNQDTLACVVDNKVAVMQRAESSTRVVAEVPASGSSSGSAKHTQHFTSGKWSHHHQGHQFLTLQDGNLSAYDVRDTQHCAWSINDAHGQMVRDLDCNPNKQCHLVTGGDDGYLRIWDCRMPKAPVFERSDHSHWVWCVRFNTFHDQLILSSSSDCKVLLTCAGSVSSETQVQAGLDESNFSGADAEERHKLLPDGLLQTFDQHEDSVYCAEWSNVDPWIFASLSYDGRVIISKVPKQYKYQIIF | failed |
| RPQNTNSWQKDSIEGIDIMLAMDVSGSMQAMDFKPNRLEAAKDVAISFINNRPNDNIGMVTFAGESFTQCPLTTDHTVLLNMVQDLQMGVLDDGTAIGMGLATAVNRLKDSKAKSRVVILLTDGSNNMGDITPRMAADIARTFGIRVYTVGVGTRGEAPFPIQTEFGVRIQNVPVDIDEPTLDGIAEVSGGKYFRAVDNETLNEIYKEIDKLEKTRLMT | failed |
| MTPAAHPPRAAIADIAGHLPEQVLTNDVLAQLYPDWPAEKILAKTGIRERRIAAPRETAADLAYEAARKLFAQGAVGADQVDFVILCTQAPDYVLPTSACMLQHRLGIPTHAGALDVNLGCSGYVYGLSLAKGLVETGAARCVLLLTADTYSKYLHPLDKSVRTLFGDGASATAVIAEHGELERIGPFVFGTDGRGAPNLIVKAGLFREPKSADSAREHEDASGNVRTDEHLYMNGAEVMAFSLAEVPRAADRLLALAGEPRENIDCFVLHQANRFMLDALRKKMKIPEHKFPVLMEHCGNTVSSTLPLALETMRANGTLARGMRLMLLGFGVGYSWAGCLVNF | not failed |
| MKKSLVVCALSAAVLLSGCETVNTTSGGVVGVDRKQSMFSMVSSAEVNQSYAQSYQQTLGEASSQGVLDKTSANAKRLQVIANRLIAQAPTFRPDCAQWKWEVNLIKSDELNANCGPGGKIIFYSGLIEKLKLTDDEIAAVMGHEIAHALREHGREAMSKQYAVGAGKQIATLFGVPQETVALGDNGVNLLMTLPNSRENENEADLIGLELAARAGYNPNAAISLWNKMGQAAGGSAPPEFMSTHPASTSRIASLQAAIPKVMPLYQAAKKSLEHHHHHH | failed |
| RDRRDSRLRVAASMTIAEYLLPGWLVALRAQLPDTAVSLLAGNSAAVAERLLADDADLGFVEGVSVPTGLDSAVIGHDRLIVVTAPGHPWARRRRPLEAAELAATPLILREKGSGTRQVLDAALGGLARPLIELSSTTAVK | failed |
| MRISAKKPRPRPIFALCAPYPEAQPQEAEVRVRTSILAFVLAAVSTIAGAQDSGLTSLETTDAGRSWLAVGRLDIDGTGFCTGALIAPDLVLTAAHCLYDKTTGQRIDPARIEFLAGWRRGRASAYRRVARAVHHPDYLYEGAVTAERVRNDLALLKLSQPIRNTTVVPFETGNRPMRGDAVQVVSYAHDRAEAPSLQEACAVMARQQGVLVMSCDVDFGASGSPVFSLSDSTPRIVSVVSAKAEVDGARVALGTSLDDTLTFLMGELDSHKRAEIPTVPRVNRLSASGQGSASGAKFVRP | failed |
| TVLYVHGGAWFQDPLENHFEYLDLLVDALDARVIMPVYPKIPHRDYRTTFELLTKIYKRLLTKIDEPENLVIIGDSAGGQIALAFAQMLKKEQLSQPGHIVLISPVLDATFKNPEARKYEKEDPMLGIDGSKYLVELWAGDAPLDDYKMSPMNGDLEGLGHITLTVGTKETLYPDAVKFSHMLNDKGIKHQFIPGYNLFHIYPLFPIPERQRFLEQLKKII | failed |
| MHLVNIRNQPLGNTIIQVLGVMAFGLFAAVVYMKTSNLIFAIVVHAMNDFMAIMASSGSLSSQQTNPLTILYEWFIFGTLAFALFYTGWTQREKFIAAIQERSPQLTARKLPTLAQSSTFRRIFALVSMIYGILILPTMLLFSKLSTSAGSRAEIANKALPIYLLFLLGIALYIFLIVFFDFHLGNLCWLLLPYIGGPVFALIALVNGARPLTEKTNQSKTINNKTPN | failed |
| MGGITITAVISNRDKVTFGEVADHYHSNKLIFGLKYFKNWVLERVAAWFPIPSWRAKFHKMRGVNLGKNVYVGYDVVFDRLHPEMITVGDYSEIGDRCILSAHSRGSLTTRQAYPRTIEPIKIGCGVSVNPGCIITQGVEIGDNSIIGIGSVVTRDISPNSLALGYPARVIKKLDGVGELQTSFNDT | failed |
| AAGSENTNYFISLEQGEFVLTLVERGPVQEMPFFIELLDVLHDANLPVPYALRTTDGQALRELAGKPALLQPRLPGKHISEPNTQHCVQIGELLANLHLATREQVLERKTDRGLDWMLSEGRNFLSHLGETQRALLEKSLQEIEDLKPQIMALPRANLHADLFRDNVLFEGTHLTGLIDFYNACSGPMLYDLAIALNDWCSRENG | failed |
| MFGQWEFDVSPTGGIAVASTEVEHFAGSQHEVDTAEVPSAAWGWSRIDHRTWHIVGLCIFGFLLAMLRGNHVGHVEDWFLITFAAVVLFVLARDLWGRRRGWIR | failed |
| MGVLRPAAPITGTPNTRLTPVRRRLPTAEAKPTPRFNTPTNKLPEQMSSESPRNPLLDTWTETSSHMFNSVVAANRAAFAAFGVQQEEENGVTPAERIEPDEDLPEWHVSISEEHPGRLGVGDHVDFTKTISEHDVQQFAAASGDTNPLHLDDEFAEQTRFRGRIAHGTLVGSLISAALARLPGLTIYLSQDLEFHNPVRIGDRLTAECEIVEDLGDEQYRLTTRVLADDEVVIDGEAVVLIDDLPE | failed |
| MRLTTLWQNRSPGDRHLSTYFCFAAVRLLLVFVPQLGYVHPDEFFQSVEVMTGDHFRLEHTRTWEFNNSLPVRSIVLPFALLRIPWSFYEFVAECLKAWWQLELLGTYAYVVFPRLIYTLISFSNDYCLFRICRLYGLRFEIRLLAMGSSWILLVFGTRTFSNSLEMAMCSWLLCLVSECMLRTNTVVYKKEFLEEKYDKAESISERVRIWKLKNSLPAHNLQHLMAMSTICVAGVFNRPTFLLFGAPMVFFWLLRGMGTRSITFRDFNLRIALFCLCALPALVLFIFCDSLYYQHLTLGELHMMHLSIDNFVFTPWNFIKANLDSAQTASHGVHPCYVHLMVNMPMLFNVLALASLGAFAQLLLRFFRAEYQVLPRFQSIVSLMSGAIFVPLFFLSLINHQEPRFLLPVTFPLILLHAPKLITGFSAKYPFQKDHPLLRLFYDKLLSSKASGPYLLKIWYVSNVALTLFFGFIHQAGVYPLAADISHVIATKPAATHVHLITSHIYSLPLHLINIPSSRVLHFNRLTHQRYRRPRDFYMYEYGGLPLDSLLQKVKLISGSCEVKKSGPSRRRYKLYLAIPASLSADLHEALVHSNASSYLNFELLKVFYPHLSTEAFPHLQGRHPCDVDAPHWAHDDLRGTCSAEQLPAFSFAYLNKQFSSFVHQLGLALYEIDVTRNKPRYVSLAYSGCSPTKGYFLLFIQFLICLALCIAAAQAGFIASPVTTYAAAPAYAASYAAPVAYSAPVATYAAAAPAYSTYAAAAPAYSTYAAAAPAYSTYAAAAPAYTASVYSAPAYTAPVTTYAAGAAYAAPVTTYSAPAIVSPILKKK | failed |
| MKSEMVLSFMATLAQEESHTKSEIMNASIEMRFRRGIFLTPTLLGYDHDEDGNLVVNEGEAKIVRLIFMMYLNGCTCQEIADTMTELGCETKKGNTVWSPGSILQILQNERHCGDVLARKTYTPNYLNHKSKKNMQNRPQYRKRNHHEAIISRDDFIAVQRLISNAKYGNKGILPELKVISNGVLKGFVSINPRWAGFKENDYISASLSVYDQMEQLSPSASSVEVQSGDFDLRGYEIARSQFFDGTDRITVTFSLNDIKFSTAAVRKLNSTLVELLLHPNKHLFAVRTASQAHRNAMQWAKKRGELSVPRAVSGTAFMPTVYALLGWNTDCRYRITGIRRGNGNDAVLLFNLEETEIFIPSDVIDEQQTSDARTDVKPFTDNQKKNVRAYPPDWADTFGSNYYCHAQAHELAGFNSRDVISNEAVAYKDSDIQVTSPDEVEKNIEQLMSDMKENSNELEHHHHHH | failed |
| MKFSIIVPSYNSEKYIAELLNSLQNQSYDKKDFEVILVDDCSSDNTLNVVEAYKNKLNLIIKQLDTNSGGPGKPRNTALQLAQGEYVFFVDSDDYINKDTLKDVSKFVDQNHADVVLVKMEGVNGRGVPKSMFKETSDAVTLANSRIIYTLSPTKFYRTSLLRDHAIEFPEDLRSAEDQLFTMKAYVNAKRIAVLADKPYYYATKREGEHMSSAYVSPEDFYKVMSLITEEILNSPLENKNEVLGYFIDRHFSFSRTNNFSLKIADDKKEAWMDALGDFIQKVPTVVDELVNDSFKPLLHYARLKDMKHYQMVEESYKNGKFHSYSAQEGTLKIQFDEGEPYFVFKKLVKPDIRMSHFEFNDQGFELELEFISSIINPNHVASMIQLKLLSRNKKEFIYIPLTMNDQTRFKFKADLNDLMPYLIKEKVWDAHLEMRVDNMTIEKRIGNKRVKYPYSKETSTITQYNNQYYRFTPYFTKDFDNLSFYITSNKLNEMLAVEIKDKQTIQLRSLEFNYILSEGMTAVILPHMFTYGYLTSVTTKDTLTYHLSVGEKVKDKDLKKNFKIETPHLVLKYLEHHHHHH | not failed |
| MFTGSIVALVTPMDEKGNVSRSCLKKLIDYHVANGTSAIVSVGTTGESATLSHDEHGDVVMMTLELADGRIPVIAGTGANATAEAISLTQRFNDSGIVGCLTVTPYYNRPTQEGLFQHFKAIAEHTDLPQILYNVPSRTGCDMLPETVGRLAEIKNIIAIKEATGNLTRVHQIKELVSDDFILLSGDDASALDFMQLGGHGVISVTANVAAREMADMCKLAAEGQFAEARAINQRLMPLHNKLFVEPNPIPVKWACKALGLVATDTLRLPMTPITDHGRDIVKAALQHAGLL | not failed |
| TIDIDLQKKVESLLEKQISKLRSQGAKDMDNALMVVQNPKNGDILAIAGKQIDKQGKLKDYDIGNFTAQYTVGSSVKGGTLLAGYQNKAINVGETMVDEPLKFQGGLTKRSYFNKNGHVSIDDKQALMHSSNVYMFKTALKLAGDPYTSGMSLPNNIADAGRKLRKGLNQVGLGLKTGIDLPNETPGQIEPLTNNPGNYLDLAIGQYDTYTPLQLSQYVSTIANDGYRIQPHIGLSIYESTNKDETGPLKRKIKGNVLNKVNNSNDEIKEVQEGFKMAFNEKQGTGYASFRNTVVPSAGKTGTAEVFQDGEPRVNSTYIGYAPVDDPKLSFSIVYTNQPVPPPWLNGGDLGRDVINYYFKDKDNKKDDSQSNNEEKED | failed |
